Among the data in EP2718312B1 are EC50, agonist activity in an Aequorin assay and EC50, Aequorin assay values, retold here.

The target of the assay is hCXCR1 (human) (UniProt P25024). Nature of the assay: cell-based or functional assay.
Chain of hCXCR1 (human) (P25024 whole entry): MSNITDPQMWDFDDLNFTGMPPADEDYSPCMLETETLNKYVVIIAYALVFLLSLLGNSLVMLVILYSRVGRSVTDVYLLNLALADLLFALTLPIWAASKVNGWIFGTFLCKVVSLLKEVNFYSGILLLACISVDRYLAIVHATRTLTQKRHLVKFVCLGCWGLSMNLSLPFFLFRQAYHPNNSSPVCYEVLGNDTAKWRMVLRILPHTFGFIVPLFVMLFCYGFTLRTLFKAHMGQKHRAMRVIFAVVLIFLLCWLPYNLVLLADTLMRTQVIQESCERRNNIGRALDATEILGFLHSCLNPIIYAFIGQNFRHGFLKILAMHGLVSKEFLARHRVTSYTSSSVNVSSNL

As to “biotinIL-8 (6-78) (from UniProt P10145 28-99) (ligand)”, the EC50, agonist activity in an Aequorin assay is 6.1 nM.
The substance “recombinant native IL-8 (from UniProt P10145 28-99)” came in with an EC50, Aequorin assay of 4.2 nM.
